{"source": "the DeepSol protein solubility set", "data": [{"test": "soluble on expression in E. coli; label from the status in PepcDB or PDB records", "values": [{"sequence": "MGSDKIHHHHHHMKIVHTADWHLGKILNGKQLLEDQKYILTQFKQHMEKEQPDLIVIAGDLYDTSYPSKEAIGLLEETIEYLNIELKIPIIMISGNHDGRERLNYGSKWFENNQLYIRTQLENIDDPIELSGVQFFTLPFATVSEVQNYFKDKQIETYQQALNECLEQMSSSIDNNKVNILIGHLTIEGGKTSDSERPLTIGTVESVDMHSFRLFDYVMLGHLHHPFSINNSFIKYSGSILQYSFSEVNQSKGYRVLDIENNQLLNETFVPLKPLRELEVIEGDYEDIIQERIKVKNKNNYFHFKLTNVSHITDPMMKLKQIYPNILALSNVVFDHSENFSHVEIKKQDDQTIIENFYKNMTDQHLSQVQSDKIKHLLSFILDREG", "soluble on expression in E. coli": "not soluble"}, {"sequence": "MSLKEPRWRDPELPEVLAMLRHPVDPVKANAAAYLQHLCFENEGVKRRVRQLRGLPLLVALLDHPRAEVRRRACGALRNLSYGRDTDNKAAIRDCGGVPALVRLLRAARDNEVRELVTGTLWNLSSYEPLKMVIIDHGLQTLTHEVIVPHSGWEREPNEDSKPRDAEWTTVFKNTSGCLRNVSSDGAEARRRLRECEGLVDALLHALQSAVGRKDTDNKSVENCVCIMRNLSYHVHKEVPGADRYQEAEPGPLGSAVGSQRRRRDDASCFGGKKAKEEWFHQGKKDGEMDRNFDTLDLPKRTEAAKGFELLYQPEVVRLYLSLLTESRNFNTLEAAAGALQNLSAGNWMWATYIRATVRKERGLPVLVELLQSETDKVVRAVAIALRNLSLDRRNKDLIGSYAMAELVRNVRNAQAPPRPGACLEEDTVVAVLNTIHEIVSDSLDNARSLLQARGVPALVALVASSQSVREAKAASHVLQTVWSYKELRGTLQKDGWTKARFQSAAATAKGPKEGHHHHHH", "soluble on expression in E. coli": "not soluble"}, {"sequence": "RLCKALYSFQARQDDELNLEKGDIVIIHEKKEEGWWFGSLNGKKGHFPAAYVEELPSNAGNTATKA", "soluble on expression in E. coli": "soluble"}, {"sequence": "MMNASTKFSDNYDVKEELGKGAFSVVRRCVHKTTGLEFAAKIINTKKLSARDFQKLEREARICRKLQHPNIVRLHDSIQEESFHYLVFDLVTGGELFEDIVAREFYSEADASHCIQQILESIAYCHSNGIVHRDLKPENLLLASKAKGAAVKLADFGLAIEVNDSEAWHGFAGTPGYLSPEVLKKDPYSKPVDIWACGVILYILLVGYPPFWDEDQHRLYAQIKAGAYDYPSPEWDTVTPEAKSLIDSMLTVNPKKRITADQALKVPWICNRERVASAIHRQDTVDCLKKFNARRKLKAAISAVKMVTRMSGVLRTSDSTGSVASNGSTTHDASQVAGTSSQPTSPAAEVYPNVLLFNPQKFPRNCVHPFTTHPYYSPKESSKKKLFFTLLFEVCPHTSRSHILLRDNTKNIYHPYHCFTNKMSNYERAAPSSHGSSTTKKIANAIADLVIRRSSPSIRRKTEADVHNSNRNRKVSAPANLQHALVPVIDVVVATGALASSSVDNLSASTSSDLGRNLLNKKEQGPPSTIKESSESSQTIDDNDSEKGGGQLKHENTVVRADGATGIVSSSNSSTASKSSSTNLSAQKQDIVRVTQTLLDAISCKDFETYTRLCDTSMTCFEPEALGNLIEGIEFHRFYFDGNRKNQVHTTMLNPNVHIIGEDAACVAYVKLTQFLDRNGEAHTRQSQESRVWSKKQGRWVCVHVHRSTQPSTNTTVSEF", "soluble on expression in E. coli": "not soluble"}, {"sequence": "GVFTFEDEINSPVAPATLYKALVTDADNVIPKALDSFKSVENVEGNGGPGTIKKITFLEDGETKFVLHKIESIDEANLGYSYSVVGGAALPDTAEKITFDSKLVAGPNGGSAGKLTVKYETKGDAEPNQDELKTGKAKADALFKAIEAYLLAHPDYN", "soluble on expression in E. coli": "soluble"}, {"sequence": "MGSDKIHHHHHHMNAVLQKKGGVGIIILARLDSTRLPGKALRTAAGKEMLGYVVERARMVRGVSEIVLATTDRTVDDRLEEYAAACDLAVFRGSDVDVAGRVAACVRWRGWDAFVRINGDSPFIDPQTISSAVNLLYGLGGVSAAGLSDSHAQRGNMHAECASLPLVACGSVTLAGYAGHDATELPDMVTNVLRRTFPKGQSVEVCRASAFLAGYAAMHLPEHLEHVTKYFYDTRSIRIMNMESGDPSLGEIQLAVDTEEDFALFERMLARMDRPHTAYAAHEIIELYRECLHG", "soluble on expression in E. coli": "not soluble"}, {"sequence": "GPGSMLRRQCVPLRVVAAGLRLNSSSSGPSKTNDGGIPNATGMDNAPGLYAEKPSSTYCEEKYPNKVEEVGSLKPPTYDVPHGRSDNIKTPEFNTSLGKFDQAPYFTGGPPAMRYHGYKRDPAVEGVDYRDVLPKTPIEDHHPHMEFLSVTGRREGSTFLLANAGVNWELKAAAMSLYRTILKSLPMIKHYYWLLVPLPAMKDKIRLRFLQNQHTKDPDAIRHLLHNGWMEFQESIMFRRPR", "soluble on expression in E. coli": "not soluble"}, {"sequence": "MVHLAKYIVVTGGVVSSIGKGITAASIGRILRSYGLSVTAIKIDPYLNWDSGTLNPYQHGEVFVTDDGMETDLDLGHYERFLDSDLPGEANITTGKVYMSVINKERSGDYLGSCVQIIPHITDEIKSMIRKIADKSGAEVVLVEVGGTVGDIEGQPFLEALRQLRNEEGHENVMFVHVTYVPYLRAAGEFKTKPTQHSTKELRSTGINPDMIICRSEMPIDSSLKRKIAHFCDVEEEAVVNAPDASSIYEVPLVLDSERVGDYIVRRIELDVDGEADLSEWAGIVESLMIDEPVVTVGIVGKYVELEDSYISIREALKHAAAHLRVRVDIEWISADDAVNEEDLSRLDSILIPGGFGERGIAGKLEAVRFALENRVPIFGICLGMQCMVIEFARLNGMEGANSTEFDPETPYPVIDMMEEQKRIKNMGGTMRLGSYQCRIREGTLAHEAYGTELVGERHRHRFELNNEFREELESKGLIISGTSPDDFLVEMVEIKDHPWFLGCQFHPEFRSRPNRAHPLFVSFLRAALERSR", "soluble on expression in E. coli": "soluble"}, {"sequence": "MTPTLETKYVFTITARIGDVTSAGEIGTGVRRIIPILGGEVKGEGISGQVLPFGADFQIIRPNELIELEAKYAFETDDGAVVYVENVGIRFGPVELLRKLKRGEPVDPKVIYFRTRPRFETGHPNYQWLMQYLFVGSAARHADRVVIDVHQVL", "soluble on expression in E. coli": "soluble"}, {"sequence": "MSQLMQLKDVAESTRLGPLSGEVSAGEILHLVGPNGAGKSTLLARMAGLTSGEGSIRFGGAPLEAWATATLAQHRAYLAQQQNPPFAMPVWHYLTLHQPDKTRTGQLNEVADMLGLGDKLGRSVNQLSGGEWQRVRLAAVVLQIHPDANPVGQLLLLDEPMNSLDVAQQNALDRVLHHLCQAGIAIVMSSHDLNHTLRHAHKAWLLKRGKLIACGRREEVLTPSYLAQAYGLRFRRLDVEGHPMLISAT", "soluble on expression in E. coli": "not soluble"}, {"sequence": "MASEVPQVVSLDPTSIPIEYNTPIHDIKVQVYDIKGGCNVEEGLTIFLVNNPGKENGPVKISSKVNDKQVSEFLKDENMEKFNVKLGTSKHFYMFNDNKNSVAVGYVGCGSVADLSEADMKRVVLSLVTMLHDNKLSKLTVVFEINVDKNLFRFFLETLFYEYMTDERFKSTDKNVNMEYIKHLGVYINNADTYKEEVEKARVYYFGTYYASQLIAAPSNYCNPVSLSNAAVELAQKLNLEYKILGVKELEELKMGAYLSVGKGSMYPNKFIHLTYKSKGDVKKKIALVGKGITFDSGGYNLKAAPGSMIDLMKFDMSGCAAVLGCAYCVGTLKPENVEIHFLSAVCENMVSKNSYRPGDIITASNGKTIEVGNTDAEGRLTLADALVYAEKLGVDYIVDIATLTGAMLYSLGTSYAGVFGNNEELINKILQSSKTSNEPVWWLPIINEYRATLNSKYADINQISSSVKASSIVASLFLKEFVQNTAWAHIDIAGVSWNFKARKPKGFGVRLLTEFVLNDALHHHHHH", "soluble on expression in E. coli": "soluble"}, {"sequence": "MAGAGHKEDKSVTKKLIKKESKSDITIYFKQREESEDNNANPINISRSSEKDRVIMLVNGSNGSKKNLASELNVRRSVAQTGAGGVTQPKPLLNDINTKSHAFIQSRLEKMRKGL", "soluble on expression in E. coli": "not soluble"}, {"sequence": "MGSDKIHHHHHHMNYCSIVSSNVVKGKAKELGFHKVGIAAVNESTNAEAERLQAWIKLGYHADMEWMNNPKRSDISLIMPEARSLVCVALNYYTPHQRPDSAEYAKISRYGWGRDYHKVMNRKLKALTTWLQSLDPSIQARYYADTGPVQDKVWAQRAGIGWIAKNGNVITRAYGSWVFLGEVVTNLELEKDSPHTEHCGSCTRCLDACPTGAITQPFVVDANRCIAYHTIENRAAELPEAIASQMQGWVAGCDICQDVCPWNQRFAQTTDVVDFQPYPDNIAPKLIELAQISDEEWDKQFPASALRRIKPEMLRRNARANLDASKRNNDPESNHF", "soluble on expression in E. coli": "not soluble"}, {"sequence": "MQRLFRQKMIINSLGTSPTSVDTLVELTGASPATIRRDLTDLEGHGQLRKVHGGAVAVNLRGTPMPYSLRSAENAESKTAIAQLVSRLVTDDMSVIIDNGSTMVAVAQALQERPITALCLSLRAALPLGEGGVATVSTPDGTLMPESLRYAAASCLRALGEFRADVAIVGTCSASPAMGLTVTTHQDAQVKRAILASSARVVLAATGDKLSRTSSFRFGDIEDIDDLVTTRDAPQVTLDAFRVAGSRVYVADLEHHHHHH", "soluble on expression in E. coli": "soluble"}, {"sequence": "MGSDKIHHHHHHMLVNAYFIKLDSCQLPPRDLAVSVFLNLSKFNMPLTMPHLLELFVDSYFIEKKKRLRQCLQEPLDCGPVFHFSEPWEGLLSGYCTVLEDPLDGYFKLYYRGLSDGNLECSDGEVTCLALSHNGVEWFRPNLGLHKWLNRKSTNIILANNTPDSHNFTPFLDSSPTTLSHQRYKALAGVAPSGLNAYFSADGINWTNPYSKPVLTTGMFDSQNVAFWSSSEQKYVCFMRTWTGEGFSGIRTISRSTSTDFSSWTVPRRMSFGRIPLEHLYTNQTQPYPRAQQIYIGLAARFMPERQVITTEEALELSVDPSYYRDCSDVVLITSRGGNRYHRAVRQAFLKPGIGLENWVSRTNFPALGFIHTKPDEISFYMNKNYAQPNAYLSRFSFPLDRLGYLEASDSYGELITKSIPISSQDDLHLNLSTSAAGSCFVALLDENDATVSQFDMSSCLELIGNELSKPVRWLSSNGVSLRIGDSGLSSVKLHIRLLDARLFAFSLCSTDR", "soluble on expression in E. coli": "not soluble"}, {"sequence": "MNTDAIESMVRDVLSRMNSLQGEAPAAAPAAGGASRSARVSDYPLANKHPEWVKTATNKTLDDFTLENVLSNKVTAQDMRITPETLRLQASIAKDAGRDRLAMNFERAAELTAVPDDRILEIYNALRPYRSTKEELLAIADDLESRYQAKICAAFVREAATLYVERKKLKGDD", "soluble on expression in E. coli": "soluble"}, {"sequence": "MNAILHDMAVPFYKPVSNECSLFEAASRKGLPLLLKGPTGCGKTRFVEHMAARMGRKLYTVACHDDLSAADLIGRYLLKGGATEWVDGPLTRAVREGAICYLDEVVEARKDVTVVLHPLTDNRRTLMIDRTGEELVAPPGFMLVASYNPGYQNILKRLKPSTRQRFLSIGFTFPDPVTETAVVARESGLSEAKVAPLVRLAGHVRALSGMDLEEGVSTRLLVYAASLMAGGMSIEAALEAAVIEPLTDEPDVAQALRDLIATVYGLEHHHHHH", "soluble on expression in E. coli": "not soluble"}, {"sequence": "MGSDKIHHHHHHMNIFDNILSSATIFKNRDVLRHSYTPEKLPHREEQINQLALLLSPMLRGGTPSNIFIYGKTGTGKTATVLFVARQLEEASRKAKLNVAVHYINCEIVDTAYRVLASLARKFGSNVPMTGWPTDQVYEEVKKALERRGTRVVVILDEIDKLVKKAEEALYGLTRINSELENSSICIVGISNNLKFKEYLDARILSSLSEEEIVFPPYNAEQLEDILQQRAKLAFEDGVLEDGVIQLCAAIAAQEHGDARKALDLLRVSAEIAERERDSMVRVEHVKKAVRKIETDYMIETVRTLPVHSKILLYSMSLISENSPKFTTGEVYCVYKKLCGKVGVDPLTQRRISDLISELDMLGILNSVVISKGRYGRTREMKLEADEKVLRKALEEDYRLQNLRKFEGELKKLANLNLFQF", "soluble on expression in E. coli": "not soluble"}, {"sequence": "MYRIGELAKMAEVTPDTIRYYEKQQMMEHEVRTEGGFRLYTESDLQRLKFIRHARQLGFSLESIRELLSIRIDPEHHTCQESKGIVQERLQEVEARIAELQSMQRSLQRLNDACCGTAHSSVYCSILEALEQGASGVKSGC", "soluble on expression in E. coli": "not soluble"}]}]}
